# From patent US20180016354A1 (Merck KGaA, published 2018)
# Molecular target: T1, EGFR (on EGFR-expressing A431 cells) (UniProt P00533 25-1210, limits assumed)
# T1 construct: whole, on cells; A431 is a human cell line; also called EGFR-positive cells; EGFR-overexpressing A431 cells
# Experiment: flow cytometry on A431 cells
row,binding result,Binder
1,binds,"Unengineered one-armed anti-EGFR antibody (CH1/CL hu425 Fab on SEED AG heavy chain, with huFc_GA SEED) (antibody, One Fab arm only (monovalent); also called unengineered Fab one-armed anti-EGFR; control antibody) heavy: QVQLVQSGAEVKKPGASVKVSCKASGYTFTSHWMHWVRQAPGQGLEWIGEFNPSNGRTNYNEKFKSKATMTVDTSTNTAYMELSSLRSEDTAVYYCASRDYDYDGRYFDYWGQGTLVTVSSASTKGPSVFPLAPSSKSTSGGTAALGCLVKDYFPEPVTVSWNSGALTSGVHTFPAVLQSSGLYSLSSVVTVPSSSLGTQTYICNVNHKPSNTKVDKKVEPKSCDKTHTCPPCPAPELLGGPSVFLFPPKPKDTLMISRTPEVTCVVVDVSHEDPEVKFNWYVDGVEVHNAKTKPREEQYNSTYRVVSVLTVLHQDWLNGKEYKCKVSNKALPAPIEKTISKAKGQPFRPEVHLLPPSREEMTKNQVSLTCLARGFYPKDIAVEWESNGQPENNYKTTPSRQEPSQGTTTFAVTSKLTVDKSRWQQGNVFSCSVMHEALHNHYTQKTISLSPGK EPKSSDKTHTCPPCPAPELLGGPSVFLFPPKPKDTLMISRTPEVTCVVVDVSHEDPEVKFNWYVDGVEVHNAKTKPREEQYNSTYRVVSVLTVLHQDWLNGKEYKCKVSNKALPAPIEKTISKAKGQPREPQVYTLPPPSEELALNELVTLTCLVKGFYPSDIAVEWLQGSQELPREKYLTWAPVLDSDGSFFLYSILRVAAEDWKKGDTFSCSVMHEALHNHYTQKSLDRSPGK light: DIQMTQSPSSLSASVGDRVTITCSASSSVTYMYWYQQKPGKAPKLLIYDTSNLASGVPSRFSGSGSGTDYTFTISSLQPEDIATYYCQQWSSHIFTFGQGTKVEIKRTVAAPSVFIFPPSDEQLKSGTASVVCLLNNFYPREAKVQWKVDNALQSGNSQESVTEQDSKDSTYSLSSTLTLSKADYEKHKVYACEVTHQGLSSPVTKSFNRGEC"
2,binds,"one-armed anti-EGFR SEED antibody with SEED CH3 domain-exchanged Fab, Variant 2 (antibody, hu425 Fv; one Fab arm only; also called CH3-SEED variant 2) heavy: QVQLVQSGAEVKKPGASVKVSCKASGYTFTSHWMHWVRQAPGQGLEWIGEFNPSNGRTNYNEKFKSKATMTVDTSTNTAYMELSSLRSEDTAVYYCASRDYDYDGRYFDYWGQGTLVTVSSASTKGEPQVYTLPPPSEELALNELVTLTCLVKGFYPSDIAVEWLQGSQELPREKYLTWAPVLDSDGSFFLYSILRVAAEDWKKGDTFSCSVMHEALHNHYTQKSLDRSKSCDKTHTCPPCPAPELLGGPSVFLFPPKPKDTLMISRTPEVTCVVVDVSHEDPEVKFNWYVDGVEVHNAKTKPREEQYNSTYRVVSVLTVLHQDWLNGKEYKCKVSNKALPAPIEKTISKAKGQPFRPEVHLLPPSREEMTKNQVSLTCLARGFYPKDIAVEWESNGQPENNYKTTPSRQEPSQGTTTFAVTSKLTVDKSRWQQGNVFSCSVMHEALHNHYTQKTISLSPGK light: DIQMTQSPSSLSASVGDRVTITCSASSSVTYMYWYQQKPGKAPKLLIYDTSNLASGVPSRFSGSGSGTDYTFTISSLQPEDIATYYCQQWSSHIFTFGQGTKVEIKRTVAPEVHLLPPSREEMTKNQVSLTCLARGFYPKDIAVEWESNGQPENNYKTTPSRQEPSQGTTTFAVTSKLTVDKSRWQQGNVFSCSVMHEALHNHYTQKTISLSGEC EPKSSDKTHTCPPCPAPELLGGPSVFLFPPKPKDTLMISRTPEVTCVVVDVSHEDPEVKFNWYVDGVEVHNAKTKPREEQYNSTYRVVSVLTVLHQDWLNGKEYKCKVSNKALPAPIEKTISKAKGQPREPQVYTLPPPSEELALNELVTLTCLVKGFYPSDIAVEWLQGSQELPREKYLTWAPVLDSDGSFFLYSILRVAAEDWKKGDTFSCSVMHEALHNHYTQKSLDRSPGK"
3,binds,"one-armed anti-EGFR SEED antibody with SEED CH3 domain-exchanged Fab, Variant 1 (antibody, hu425 Fv; one Fab arm only; also called CH3-SEED variant 1) heavy: QVQLVQSGAEVKKPGASVKVSCKASGYTFTSHWMHWVRQAPGQGLEWIGEFNPSNGRTNYNEKFKSKATMTVDTSTNTAYMELSSLRSEDTAVYYCASRDYDYDGRYFDYWGQGTLVTVSSASTKGPEVHLLPPSREEMTKNQVSLTCLARGFYPKDIAVEWESNGQPENNYKTTPSRQEPSQGTTTFAVTSKLTVDKSRWQQGNVFSCSVMHEALHNHYTQKTISLSKSCDKTHTCPPCPAPELLGGPSVFLFPPKPKDTLMISRTPEVTCVVVDVSHEDPEVKFNWYVDGVEVHNAKTKPREEQYNSTYRVVSVLTVLHQDWLNGKEYKCKVSNKALPAPIEKTISKAKGQPFRPEVHLLPPSREEMTKNQVSLTCLARGFYPKDIAVEWESNGQPENNYKTTPSRQEPSQGTTTFAVTSKLTVDKSRWQQGNVFSCSVMHEALHNHYTQKTISLSPGK light: DIQMTQSPSSLSASVGDRVTITCSASSSVTYMYWYQQKPGKAPKLLIYDTSNLASGVPSRFSGSGSGTDYTFTISSLQPEDIATYYCQQWSSHIFTFGQGTKVEIKRTVAEPQVYTLPPPSEELALNELVTLTCLVKGFYPSDIAVEWLQGSQELPREKYLTWAPVLDSDGSFFLYSILRVAAEDWKKGDTFSCSVMHEALHNHYTQKSLDRSGEC EPKSSDKTHTCPPCPAPELLGGPSVFLFPPKPKDTLMISRTPEVTCVVVDVSHEDPEVKFNWYVDGVEVHNAKTKPREEQYNSTYRVVSVLTVLHQDWLNGKEYKCKVSNKALPAPIEKTISKAKGQPREPQVYTLPPPSEELALNELVTLTCLVKGFYPSDIAVEWLQGSQELPREKYLTWAPVLDSDGSFFLYSILRVAAEDWKKGDTFSCSVMHEALHNHYTQKSLDRSPGK"
4,binds,"one-armed anti-EGFR SEED antibody with KiH2 CH3 domain-exchanged Fab, Variant 2 (antibody, hu425 Fv; one Fab arm only; also called KiH2 variant 2) heavy: QVQLVQSGAEVKKPGASVKVSCKASGYTFTSHWMHWVRQAPGQGLEWIGEFNPSNGRTNYNEKFKSKATMTVDTSTNTAYMELSSLRSEDTAVYYCASRDYDYDGRYFDYWGQGTLVTVSSASTKGEPQVYTLPPSRDELTKNQVSLSCAVKGFYPSDIAVEWESNGQPENNYKTTPPVLDSDGSFFLVSKLTVDKSRWQQGNVFSCSVMHEALHNHYTQKSLSLSKSCDKTHTCPPCPAPELLGGPSVFLFPPKPKDTLMISRTPEVTCVVVDVSHEDPEVKFNWYVDGVEVHNAKTKPREEQYNSTYRVVSVLTVLHQDWLNGKEYKCKVSNKALPAPIEKTISKAKGQPFRPEVHLLPPSREEMTKNQVSLTCLARGFYPKDIAVEWESNGQPENNYKTTPSRQEPSQGTTTFAVTSKLTVDKSRWQQGNVFSCSVMHEALHNHYTQKTISLSPGK light: DIQMTQSPSSLSASVGDRVTITCSASSSVTYMYWYQQKPGKAPKLLIYDTSNLASGVPSRFSGSGSGTDYTFTISSLQPEDIATYYCQQWSSHIFTFGQGTKVEIKRTVAEPQVYTLPPSRDELTKNQVSLWCLVKGFYPSDIAVEWESNGQPENNYKTTPPVLDSDGSFFLYSKLTVDKSRWQQGNVFSCSVMHEALHNHYTQKSLSLSGEC EPKSSDKTHTCPPCPAPELLGGPSVFLFPPKPKDTLMISRTPEVTCVVVDVSHEDPEVKFNWYVDGVEVHNAKTKPREEQYNSTYRVVSVLTVLHQDWLNGKEYKCKVSNKALPAPIEKTISKAKGQPREPQVYTLPPPSEELALNELVTLTCLVKGFYPSDIAVEWLQGSQELPREKYLTWAPVLDSDGSFFLYSILRVAAEDWKKGDTFSCSVMHEALHNHYTQKSLDRSPGK"

# Molecular target: T2, CD16a receptor (FcγIIIa) (UniProt P08637 17-254, limits assumed)
# T2 construct: whole, on cells
# Experiment: CD16a HTRF cellular binding assay, competition with labeled human IgG
# Method: FIG. 14: Binding of antibodies to CD16a receptor. Binding was measured using CD16a HTRF cellular binding assay (CisBio). Measurement was performed in duplicates.
# T2 sequence (P08637 17-254 limits assumed): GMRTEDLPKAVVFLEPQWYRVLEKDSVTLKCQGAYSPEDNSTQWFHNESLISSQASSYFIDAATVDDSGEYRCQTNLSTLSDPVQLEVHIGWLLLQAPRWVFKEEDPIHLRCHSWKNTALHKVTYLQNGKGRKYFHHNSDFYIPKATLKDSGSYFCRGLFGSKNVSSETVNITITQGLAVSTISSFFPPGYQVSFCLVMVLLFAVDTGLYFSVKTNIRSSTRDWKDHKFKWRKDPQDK
row,IC50,Binder
1,~0.1 nM,"One-armed anti-CD16 with the unengineered 3G8 Fab fused to the SEED AG heavy chain (antibody, One Fab arm only; also called one-armed anti-CD16 antibody) heavy: not shown EPKSSDKTHTCPPCPAPELLGGPSVFLFPPKPKDTLMISRTPEVTCVVVDVSHEDPEVKFNWYVDGVEVHNAKTKPREEQYNSTYRVVSVLTVLHQDWLNGKEYKCKVSNKALPAPIEKTISKAKGQPREPQVYTLPPPSEELALNELVTLTCLVKGFYPSDIAVEWLQGSQELPREKYLTWAPVLDSDGSFFLYSILRVAAEDWKKGDTFSCSVMHEALHNHYTQKSLDRSPGK light: not shown"

# Molecular target: T1, EGFR (on EGFR-expressing A431 cells)
# Experiment: flow cytometry on EGFR-positive A431 cells
row,binding result,Binder
1,binds,"one-armed domain-exchanged KiH antibody with SEED CH3 domains in the Fab, Variant 2 (antibody, hu425 Fv; one Fab arm only; also called one-armed KiH antibody, CH3-SEED variant 2) heavy: not shown light: DIQMTQSPSSLSASVGDRVTITCSASSSVTYMYWYQQKPGKAPKLLIYDTSNLASGVPSRFSGSGSGTDYTFTISSLQPEDIATYYCQQWSSHIFTFGQGTKVEIKRTVAPEVHLLPPSREEMTKNQVSLTCLARGFYPKDIAVEWESNGQPENNYKTTPSRQEPSQGTTTFAVTSKLTVDKSRWQQGNVFSCSVMHEALHNHYTQKTISLSGEC not shown"
2,binds,"one-armed domain-exchanged KiH antibody with SEED CH3 domains in the Fab, Variant 1 (antibody, hu425 Fv; one Fab arm only; also called one-armed KiH antibody, CH3-SEED variant 1) heavy: not shown light: DIQMTQSPSSLSASVGDRVTITCSASSSVTYMYWYQQKPGKAPKLLIYDTSNLASGVPSRFSGSGSGTDYTFTISSLQPEDIATYYCQQWSSHIFTFGQGTKVEIKRTVAEPQVYTLPPPSEELALNELVTLTCLVKGFYPSDIAVEWLQGSQELPREKYLTWAPVLDSDGSFFLYSILRVAAEDWKKGDTFSCSVMHEALHNHYTQKSLDRSGEC not shown"
3,binds,"one-armed domain-exchanged KiH antibody with Charge pair CH3 domains in the Fab, Variant 1 (antibody, hu425 Fv; one Fab arm only; also called one-armed KiH antibody, Charge pair variant 1) heavy: not shown light: DIQMTQSPSSLSASVGDRVTITCSASSSVTYMYWYQQKPGKAPKLLIYDTSNLASGVPSRFSGSGSGTDYTFTISSLQPEDIATYYCQQWSSHIFTFGQGTKVEIKRTVAEPQVYTLPPSREEMTKNQVSLTCLVKGFYPSDIAVEWESNGQPENNYDTTPPVLDSDGSFFLYSDLTVDKSRWQQGNVFSCSVMHEALHNHYTQKSLSLSGEC not shown"
4,binds,"one-armed domain-exchanged KiH antibody with Charge pair CH3 domains in the Fab, Variant 2 (antibody, hu425 Fv; one Fab arm only; also called one-armed KiH antibody, Charge pair variant 2) heavy: not shown light: DIQMTQSPSSLSASVGDRVTITCSASSSVTYMYWYQQKPGKAPKLLIYDTSNLASGVPSRFSGSGSGTDYTFTISSLQPEDIATYYCQQWSSHIFTFGQGTKVEIKRTVAEPQVYTLPPSRKEMTKNQVSLTCLVKGFYPSDIAVEWESNGQPENNYKTTPPVLKSDGSFFLYSKLTVDKSRWQQGNVFSCSVMHEALHNHYTQKSLSLSGEC not shown"
5,binds,"one-armed domain-exchanged KiH antibody with Azymetric CH3 domains in the Fab, Variant 2 (antibody, hu425 Fv; one Fab arm only; also called one-armed KiH antibody, CH3-Azymetric variant 2) heavy: not shown light: DIQMTQSPSSLSASVGDRVTITCSASSSVTYMYWYQQKPGKAPKLLIYDTSNLASGVPSRFSGSGSGTDYTFTISSLQPEDIATYYCQQWSSHIFTFGQGTKVEIKRTVAEPQVYVYPPSREEMTKNQVSLTCLVKGFYPSDIAVEWESNGQPENNYKTTPPVLDSDGSFALVSKLTVDKSRWQQGNVFSCSVMHEALHNHYTQKSLSLSGEC not shown"
6,binds,"one-armed domain-exchanged KiH antibody with Azymetric CH3 domains in the Fab, Variant 1 (antibody, hu425 Fv; one Fab arm only; also called one-armed KiH antibody, CH3-Azymetric variant 1) heavy: not shown light: DIQMTQSPSSLSASVGDRVTITCSASSSVTYMYWYQQKPGKAPKLLIYDTSNLASGVPSRFSGSGSGTDYTFTISSLQPEDIATYYCQQWSSHIFTFGQGTKVEIKRTVAEPQVYVLPPSREEMTKNQVSLLCLVKGFYPSDIAVEWESNGQPENNYLTWPPVLDSDGSFFLYSKLTVDKSRWQQGNVFSCSVMHEALHNHYTQKSLSLSGEC not shown"
